Reference: US20230192839A1 (published 2023)

Columns and labels:
[1] = target: T1, human epidermal growth factor receptor antigen (human, UniProt P00533 25-645, limits assumed); experiment: SPR (Biacore T200), 37 C, scFv-Fc, 0 uM MTX
T1 construct: whole entry named; also called EGFR
Method: (§1) All binding kinetics analysis was performed on label-free Biacore surface plasmon biosensors (Biacore T200™ from GE Life Sciences) at 37° C. in 10 mM Hepes pH 7.4, 150 mM NaCl, 0.05% Tween-20 (HBST+), with or without 10 µM MTX. The Biacore data were processed in Biacore T200 Evaluation Software, and the data were double-referenced (Myszka, 1999, J Mol Recognit 12(5):279-284) and fit globally to a simple Langmuir with mass transport model to determine the equilibrium dissociation constant, KD, from the ratio of the kinetic rate constants (KD = koff/kₒₙ). In some cases the binding of antigen was very low (or not detectable) in the presence of 10 µM MTX and as a result kinetic rate constants could not be accurately determined. In these cases, a KD (or KD limit) was estimated based on the binding response at the highest analyte concentration tested or based on the typical limit of detection for a Biacore T200.
(§2) The first 4 rounds of panning used biotinylated EGFR antigen captured on streptavidin or neutravidin coated 96-well plates. […] 1536 clones were randomly chosen from the 4th and 5th round of panning against the EGFR antigen and their binding specificity determined by phage ELISA.

[2] = target: T1, human epidermal growth factor receptor …; experiment: SPR (Biacore T200), 37 C; KD at 10 uM MTX / KD at 0 uM MTX
Method: as §1, §2

[3] = target: T1, human epidermal growth factor receptor …; experiment: SPR (Biacore T200), 37 C, scFv-Fc, 10 uM MTX
Method: as §1, §2
(§3) “*”: For interactions where kₒₙ and koff are reported, the KD was calculated using koff/kₒₙ.

[4] = target: T2, human CD33 antigen (human, UniProt P20138 18-259, limits assumed); experiment: SPR (Biacore T200), 37 C, scFv-Fc, 10 uM MTX; KD estimated, rate constants not determined
T2 construct: whole entry named; also called Siglec-3
T2 sequence (P20138 18-259 limits assumed): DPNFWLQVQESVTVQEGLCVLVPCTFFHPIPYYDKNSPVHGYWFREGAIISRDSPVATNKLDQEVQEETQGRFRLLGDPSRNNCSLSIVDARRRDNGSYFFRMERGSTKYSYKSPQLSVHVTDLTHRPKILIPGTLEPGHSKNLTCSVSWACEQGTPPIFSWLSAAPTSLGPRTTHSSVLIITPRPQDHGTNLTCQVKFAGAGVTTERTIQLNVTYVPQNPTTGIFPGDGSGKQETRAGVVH
Method: as §1, §3

[5] = target: T2, human CD33 antigen; experiment: SPR (Biacore T200), 37 C; KD at 10 uM MTX / KD at 0 uM MTX
Method: as §1

[6] = target: T2, human CD33 antigen; experiment: SPR (Biacore T200), 37 C, scFv-Fc, 0 uM MTX
Method: as §1

| Binder | Kd [1] | koff [1] | kon [1] | Ratio: KD with MTX / KD without MTX [2] | Kd [3] | koff [3] | kon [3] | Kd [4] | Ratio: KD with MTX / KD without MTX [5] | Kd [6] | koff [6] | kon [6] |
| --- | --- | --- | --- | --- | --- | --- | --- | --- | --- | --- | --- | --- |
| P14_E03 scFv-Fc fusion (scFv, V domains shown, Tested as scFv-Fc fusion) VH: QVQLVESGGGLVQAGGSLRLSCAASRRSSRSWAMHWVRQAPGKGLEWVAVISYDGRLKYYADSVKGRFTISRDNAEYLVYLQMNSLRAEDTAVYYCAAAPRVDWSDVSSGIDYWGQGTLVTVSS VL: QSVLTQPPSASGTPGQRVTISCSGSISNIGTNNVYWYQQLPGTAPKLLIYRNNQRPSGVPDRFSGSKSGTSASLAISGLRSEDEADYYCSAWDDSLSGVVFGTGTKLTVL | 6.3 nM | 0.00067 s⁻¹ | 110000 M⁻¹ s⁻¹ | 3.9 | 25 nM | 0.00072 s⁻¹ | 29000 M⁻¹ s⁻¹ | – | – | – | – | – |
| P01_F02 scFv-Fc fusion (scFv, V domains shown, Tested as scFv-Fc fusion) VH: QVQLVESGGGLVQAGGSLRLSCAASRRSSRSWAMHWVRQAPGKGLEWVAVISYDGRLKYYADSVKGRFTISRDNAEYLVYLQMNSLRAEDTAVYYCAADVESALAYGEPYHHMDVWGQGTLVTVSS VL: QSVLTQPPSASGTPGQRVTISCSGSSSNIGRNYVYWYQQLPGTAPKLLIYRTSQRPSGVPDRFSGSKSGTSASLAISGLRSEDEADYYCATWDDSLSGWVFGTGTKLTVL | 188 nM | 0.011 s⁻¹ | 61000 M⁻¹ s⁻¹ | > 50 | – | – | – | – | – | – | – | – |
| P15_F02 scFv-Fc fusion (scFv, V domains shown, Tested as scFv-Fc fusion) VH: QVQLVESGGGLVQAGGSLRLSCAASRRSSRSWAMHWVRQAPGKGLEWVAVISYDGRLKYYADSVKGRFTISRDNAEYLVYLQMNSLRAEDTAVYYCAAARDVDGSGYDTIDVWGQGTLVTVSS VL: not shown | 266 nM | 0.022 s⁻¹ | 82000 M⁻¹ s⁻¹ | 9.5 | 2530 nM | 0.13 s⁻¹ | 50000 M⁻¹ s⁻¹ | – | – | – | – | – |
| P01_H04 scFv-Fc fusion (scFv, V domains shown, Tested as scFv-Fc fusion) VH: QVQLVESGGGLVQAGGSLRLSCAASRRSSRSWAMHWVRQAPGKGLEWVAVISYDGRLKYYADSVKGRFTISRDNAEYLVYLQMNSLRAEDTAVYYCAADMDDMLSYYNSFDIWGQGTLVTVSS VL: not shown | 889 nM | 0.076 s⁻¹ | 85000 M⁻¹ s⁻¹ | > 2 | – | – | – | – | – | – | – | – |
| P08_E05 scFv-Fc fusion (scFv, V domains shown, Tested as scFv-Fc fusion) VH: QVQLVESGGGLVQAGGSLRLSCAASRRSSRSWAMHWVRQAPGKGLEWVAVISYDGRLKYYADSVKGRFTISRDNAEYLVYLQMNSLRAEDTAVYYCAADGKGAAWSEVDEPDVWGQGTLVTVSS VL: not shown | 360 nM | 0.071 s⁻¹ | 200000 M⁻¹ s⁻¹ | 1.3 | 480 nM | 0.073 s⁻¹ | 150000 M⁻¹ s⁻¹ | – | – | – | – | – |
| P08_D06 scFv-Fc fusion (scFv, V domains shown, Tested as scFv-Fc fusion) VH: QVQLVESGGGLVQAGGSLRLSCAASRRSSRSWAMHWVRQAPGKGLEWVAVISYDGRLKYYADSVKGRFTISRDNAEYLVYLQMNSLRAEDTAVYYCAADDDGDVYAGYSYGGFDYWGQGTLVTVSS VL: not shown | 185 nM | 0.013 s⁻¹ | 71000 M⁻¹ s⁻¹ | 7.5 | 1390 nM | 0.033 s⁻¹ | 24000 M⁻¹ s⁻¹ | – | – | – | – | – |
| P05_A11 scFv-Fc fusion (scFv, V domains shown, Tested as scFv-Fc fusion) VH: QVQLVESGGGLVQAGGSLRLSCAASRRSSRSWAMHWVRQAPGKGLEWVAVISYDGRLKYYADSVKGRFTISRDNAEYLVYLQMNSLRAEDTAVYYCAASDDADIFDDYSYGAMDYWGQGTLVTVSS VL: QSVLTQPPSASGTPGQRVTISCSGSSSNIGRNYVYWYQQLPGTAPKLLIYMTSQRPSGVPDRFSGSKSGTSASLAISGLRSEDEADYYCASWDDNLRAWVFGTGTKLTVL | 235 nM | 0.028 s⁻¹ | 120000 M⁻¹ s⁻¹ | 2.5 | 580 nM | 0.05 s⁻¹ | 87000 M⁻¹ s⁻¹ | – | – | – | – | – |
| P01_A09 scFv-Fc fusion (scFv, V domains shown, Tested as scFv-Fc fusion) VH: QVQLVESGGGLVQAGGSLRLSCAASRRSSRSWAMHWVRQAPGKGLEWVAVISYDGRLKYYADSVKGRFTISRDNAEYLVYLQMNSLRAEDTAVYYCAAERPTSDGSTGGMDVWGQGTLVTVSS VL: DIQMTQSPSSLSASVGDRVTITCRASQSISSYLNWYQQKPGKAPKLLIYGASTLQSGVPSRFSGSGSGTDFTLTISSLQPEDFATYYCQQSYSSGTFGQGTKVEIK | – | – | – | – | – | – | – | 1.3 µM | 8.5 | 154 nM | 0.017 s⁻¹ | 110000 M⁻¹ s⁻¹ |
| P02_H01 scFv-Fc fusion (scFv, V domains shown, Tested as scFv-Fc fusion) VH: QVQLVESGGGLVQAGGSLRLSCAASRRSSRSWAMHWVRQAPGKGLEWVAVISYDGRLKYYADSVKGRFTISRDNAEYLVYLQMNSLRAEDTAVYYCAAGSGGGDGLDVWGQGTLVTVSS VL: DIQMTQSPSSLSASVGDRVTITCRASQTISSYLNWYQQKPGKAPKLLIYSSSTLQGGVPSRFSGSGSGTDFTLTISSLQPEDFATYYCQQSYSSGTFGQGTKVEIK | – | – | – | – | – | – | – | 4.34 µM | 3.3 | 1320 nM | 0.037 s⁻¹ | 28000 M⁻¹ s⁻¹ |
| P02_E11 scFv-Fc fusion (scFv, V domains shown, Tested as scFv-Fc fusion) VH: QVQLVESGGGLVQAGGSLRLSCAASRRSSRSWAMHWVRQAPGKGLEWVAVISYDGRLKYYADSVKGRFTISRDNAEYLVYLQMNSLRAEDTAVYYCAAEASTDNGLDYWGQGTLVTVSS VL: DIQMTQSPSSLSASVGDRVTITCRASQTISRHLNWYQQKPGKAPKLLIYSASSLASGVPSRFSGSGSGTDFTLTISSLQPEDFATYYCQQSHSAGTFGQGTKVEIK | – | – | – | – | – | – | – | 14.6 µM | 221 | 66 nM | 0.0038 s⁻¹ | 58000 M⁻¹ s⁻¹ |
| P03_A01 scFv-Fc fusion (scFv, V domains shown, Tested as scFv-Fc fusion) VH: QVQLVESGGGLVQAGGSLRLSCAASRRSSRSWAMHWVRQAPGKGLEWVAVISYDGRLKYYADSVKGRFTISRDNAEYLVYLQMNSLRAEDTAVYYCAAETGSVGLDYWGQGTLVTVSS VL: DIQMTQSPSSLSASVGDRVTITCRASQGISTYLNWYQQKPGKAPKLLIYGATSLESGVPSRFSGSGSGTDFTLTISSLQPEDFATYYCQQGYSQGTFGQGTKVEIK | – | – | – | – | – | – | – | 4.27 µM | 37 | 115 nM | 0.0057 s⁻¹ | 50000 M⁻¹ s⁻¹ |
| P01_B06 scFv-Fc fusion (scFv, V domains shown, Tested as scFv-Fc fusion) VH: QVQLVESGGGLVQAGGSLRLSCAASRRSSRSWAMHWVRQAPGKGLEWVAVISYDGRLKYYADSVKGRFTISRDNAEYLVYLQMNSLRAEDTAVYYCAADTSMFASYDPMDVWGQGTLVTVSS VL: QSVLTQPPSASGTPGQRVTISCSGSSSNIGRNYVNWYQQLPGTAPKLLIYRDDHRPSGVPDRFSGSKSGTSASLAISGLRSEDEADYYCASWDDTLSGWVFGTGTKLTVL | 230 nM | 0.024 s⁻¹ | 100000 M⁻¹ s⁻¹ | 1.1 | 256 nM | 0.026 s⁻¹ | 100000 M⁻¹ s⁻¹ | – | – | – | – | – |
| P07_H08 scFv-Fc fusion (scFv, V domains shown, Tested as scFv-Fc fusion) VH: QVQLVESGGGLVQAGGSLRLSCAASRRSSRSWAMHWVRQAPGKGLEWVAVISYDGRLKYYADSVKGRFTISRDNAEYLVYLQMNSLRAEDTAVYYCAAGFDWGWDSSDIYSAMDYWGQGTLVTVSS VL: DIQMTQSPSSLSASVGDRVTITCRASQNIGRYLHWYQQKPGKAPKLLIYSASNLQSGVPSRFSGSGSGTDFTLTISSLQPEDFATYYCQQSYSSPFTFGQGTKVEIK | 823 nM | 0.27 s⁻¹ | 330000 M⁻¹ s⁻¹ | > 11 | – | – | – | – | – | – | – | – |
